In the supplement of paper PMC7125110:
± gives the standard error. For part of these data: This sample holds only a part of the variants without activity.

B1: glmS ribozyme (parent)
chain: AUAAAAGCGCCAGAACUACAGAAAUGUAGUUGACGAGGAGGAGGUUUAUCGAAUUUUCGGCGGAUGCCUCCAAA

Columns and labels:
Details in all cases: with glucosamine-6-phosphate
glucosamine-6-phosphate [1] = variants of: B1; assay: kcat; higher = faster cleavage; RNA array
Method in brief: (§1)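 Glucosamine-6-phosphate, from 40 μM to 10 mM in HEPES/KCl/Mg(OAc)2 buffer, was flowed over sequenced MiSeq chips carrying barcoded ribozyme variants transcribed in situ by E. coli RNA polymerase. A hybridised Cy3 probe tracked the variants at 37 °C as tiles were imaged over ~14 h. kobs, kcat and KM were obtained by fitting normalised per-tile medians to exponential decays and then applying weighted Michaelis–Menten fits across concentrations.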

glucosamine-6-phosphate [2] = variants of: B1; assay: KM; higher = weaker cofactor use; RNA array
Method in brief: as §1

glucosamine-6-phosphate [3] = variants of: B1; assay: self-cleavage kobs at 10000 uM GlcN6P; higher = faster cleavage; RNA array
Method in brief: as §1

glucosamine-6-phosphate [4] = variants of: B1; assay: self-cleavage kobs at 640 uM GlcN6P; higher = faster cleavage; RNA array
Method in brief: as §1

glucosamine-6-phosphate [5] = variants of: B1; assay: self-cleavage kobs at 2500 uM GlcN6P; higher = faster cleavage; RNA array
Method in brief: as §1

glucosamine-6-phosphate [6] = variants of: B1; assay: self-cleavage kobs at 40 uM GlcN6P; higher = faster cleavage; RNA array
Method in brief: as §1

glucosamine-6-phosphate [7] = variants of: B1; assay: self-cleavage kobs at 160 uM GlcN6P; higher = faster cleavage; RNA array
Method in brief: as §1

Variant | kcat (glucosamine-6-phosphate [1]) [s⁻¹] | KM (glucosamine-6-phosphate [2]) [µM] | self-cleavage kobs at 10000 uM GlcN6P (glucosamine-6-phosphate [3]) [s⁻¹] | self-cleavage kobs at 640 uM GlcN6P (glucosamine-6-phosphate [4]) [s⁻¹] | self-cleavage kobs at 2500 uM GlcN6P (glucosamine-6-phosphate [5]) [s⁻¹] | self-cleavage kobs at 40 uM GlcN6P (glucosamine-6-phosphate [6]) [s⁻¹] | self-cleavage kobs at 160 uM GlcN6P (glucosamine-6-phosphate [7]) [s⁻¹]
A14C A33U | 3.55e-05 ± 2.4e-06 | 994 ± 450 | 3.21e-05 ± 7.6e-06 | – | – | – | –
G44A U46G | 0.000265 ± 5.2e-05 | – | 0.000221 ± 4.7e-05 | 0.000114 ± 2.6e-05 | 0.000213 ± 4.4e-05 | – | –
A14C A15C | 0.00204 ± 0.00038 | 2740 ± 760 | 0.00157 ± 0.00017 | 0.000339 ± 4.6e-05 | 0.0011 ± 0.00014 | 4.27e-05 ± 6.9e-06 | 0.000103 ± 1.6e-05
C16A A64U | < 1e-05 | – | – | – | – | < 1e-05 | < 1e-05
U55C C58G | 0.000215 ± 1.3e-05 | – | 9.91e-05 ± 1.2e-05 | – | 3.85e-05 ± 1.1e-05 | – | –
C68U U69A | 1.58e-05 ± 6.2e-06 | – | – | – | – | < 1e-05 | –
A33U U65A | 3.37e-05 ± 1.5e-06 | – | – | < 1e-05 | – | < 1e-05 | < 1e-05
G66U C71U | 0.00186 ± 0.00045 | 2150 ± 760 | 0.0014 ± 0.00014 | 0.000471 ± 4.1e-05 | 0.00174 ± 0.00026 | 3.7e-05 ± 8.7e-06 | 0.000107 ± 1.4e-05
U45A C58G | 0.000316 ± 8.7e-05 | – | 0.000222 ± 4.9e-05 | – | 0.000129 ± 3.2e-05 | – | –
G29A A39U | 0.0047 ± 0.0016 | 3440 ± 1600 | 0.0037 ± 0.00049 | 0.000731 ± 0.00013 | 0.00176 ± 0.0003 | 0.000107 ± 1.9e-05 | 0.000177 ± 3.4e-05
U47A U65C | 0.000833 ± 0.00017 | 2410 ± 980 | 0.000645 ± 0.00011 | 0.000158 ± 3.6e-05 | 0.000533 ± 0.00012 | – | –
A15G G32U | 0.00117 ± 2.6e-05 | 2990 ± 100 | 0.000917 ± 0.00013 | 0.000208 ± 2.6e-05 | 0.000525 ± 5.2e-05 | – | 6.02e-05 ± 1.1e-05
U31A A39G | 0.0529 ± 0.014 | 4340 ± 1300 | 0.0363 ± 0.0095 | 0.00495 ± 0.0018 | 0.0245 ± 0.0078 | 0.000491 ± 7.7e-05 | 0.00202 ± 0.00038
A33C U46A | 3.08e-05 ± 7.5e-06 | – | – | – | 3.48e-05 ± 1.7e-05 | – | < 1e-05
U31G G38U | < 1e-05 | – | – | – | – | – | –
G29U U56G | 0.00364 ± 0.0012 | 3840 ± 1700 | 0.00283 ± 0.00035 | 0.000648 ± 9.8e-05 | 0.00118 ± 0.0002 | 6.41e-05 ± 1.1e-05 | 0.000127 ± 1.6e-05

Variant | kcat (glucosamine-6-phosphate [1]) [s⁻¹] | KM (glucosamine-6-phosphate [2]) [µM] | self-cleavage kobs at 10000 uM GlcN6P (glucosamine-6-phosphate [3]) [s⁻¹] | self-cleavage kobs at 640 uM GlcN6P (glucosamine-6-phosphate [4]) [s⁻¹] | self-cleavage kobs at 2500 uM GlcN6P (glucosamine-6-phosphate [5]) [s⁻¹] | self-cleavage kobs at 40 uM GlcN6P (glucosamine-6-phosphate [6]) [s⁻¹] | self-cleavage kobs at 160 uM GlcN6P (glucosamine-6-phosphate [7]) [s⁻¹]
G37A G43U | 4.94e-05 ± 4.8e-06 | 620 ± 300 | 4.34e-05 ± 1.1e-05 | – | 4.23e-05 ± 7.6e-06 | < 1e-05 | < 1e-05
U31C C61A | 3.08e-05 ± 1.2e-05 | – | < 1e-05 | – | – | – | –
U31C C50U | < 1e-05 | – | – | – | – | – | –
G44U U45G | 0.0224 ± 0.0018 | 3420 ± 360 | 0.017 ± 0.0022 | 0.0033 ± 0.00046 | 0.00801 ± 0.0035 | 0.000269 ± 4.1e-05 | 0.00106 ± 0.00018
G32A C71A | 0.000628 ± 0.00012 | 2570 ± 890 | 0.00052 ± 6e-05 | 0.000112 ± 1.6e-05 | 0.000293 ± 4.5e-05 | – | 5.89e-05 ± 1.2e-05
G32A C71U | 0.00395 ± 0.001 | 4470 ± 1500 | 0.00326 ± 0.00033 | 0.000487 ± 4.1e-05 | 0.00122 ± 0.00011 | 3.68e-05 ± 5.2e-06 | 0.000159 ± 1.6e-05
G32C G60A | < 1e-05 | – | – | – | – | < 1e-05 | –
A42G C58A | 0.00048 ± 3.7e-05 | 2480 ± 390 | 0.000379 ± 9.4e-05 | 9.53e-05 ± 3.4e-05 | 0.000279 ± 0.00013 | – | –
A15C U31A | 0.00691 ± 0.0013 | 1860 ± 480 | 0.0067 ± 0.001 | 0.0015 ± 0.00035 | 0.00303 ± 0.00078 | 0.000156 ± 2.2e-05 | 0.000607 ± 0.00013
G51U A52G | < 1e-05 | – | – | < 1e-05 | < 1e-05 | < 1e-05 | –
A48C C68G | < 1e-05 | – | < 1e-05 | – | – | < 1e-05 | –
A33U A39C | 1.74e-05 ± 2.5e-06 | 3650 ± 1600 | – | – | – | – | –
A53G A64G | 0.0648 ± 0.023 | 2430 ± 1000 | 0.0493 ± 0.012 | 0.0149 ± 0.0022 | 0.0373 ± 0.01 | 0.00117 ± 0.00012 | 0.00264 ± 0.00067
U56C C67A | 4.27e-05 ± 1.5e-06 | 701 ± 180 | 3.95e-05 ± 7.5e-06 | – | 3.57e-05 ± 1.4e-05 | – | –
G40U A53U | 0.00278 ± 0.00064 | 1300 ± 390 | 0.00266 ± 0.00031 | 0.000821 ± 9.1e-05 | 0.00203 ± 0.00093 | 0.000101 ± 8.3e-06 | 0.000254 ± 3.2e-05
C11G C67G C70G | 5.32e-05 ± 2.1e-05 | – | – | 8.18e-05 ± 2.2e-05 | – | – | –
